According to patent publication CN114106180A (CHINESE PHARMACOLOGY UNIV, dated 2022):

Molecular target: T1, 重组人CD24蛋白 (human, UniProt P25063 27-59, limits assumed)
T1 construct: also called 重组人CD24抗原
T1 chain (looked up): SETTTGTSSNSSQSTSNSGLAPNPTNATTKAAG
Assay: indirect ELISA, recombinant human CD24 coated at 0.5 ug/mL, antibody 0.08-2.5 nM, goat anti-human IgG detection

B1: CD24单克隆抗体cG7 (antibody, human IgG1, V domains shown)
VH: QVKLEESGGGLVQPGGSLKISCAASGFDFSRYWMSWVRQAPGKGLEWIGEINPDSSTINYTPSLRDKFIISRDNAKNTLYLQMSKVRYEDTSLYYCARQGDYWGQGTSVTVSS
VL: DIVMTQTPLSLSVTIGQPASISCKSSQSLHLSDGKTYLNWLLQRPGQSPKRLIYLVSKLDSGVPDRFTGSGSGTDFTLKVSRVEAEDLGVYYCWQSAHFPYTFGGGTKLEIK
notes: also called 亲本CD24单克隆抗体cG7; CD24嵌合抗体
  EC50: 0.152 nM

B2: 带有工程化半胱氨酸的CD24单克隆抗体cG7SV (antibody, V domains shown)
VH: QVKLEESGGGLVQPGGSLKISCAASGFDFSRYWMSWVRQAPGKGLEWIGEINPDSSTINYTPSLRDKFIISRDNAKNTLYLQMSKVRYEDTSLYYCARQGDYWGQGTSVTVSS
VL: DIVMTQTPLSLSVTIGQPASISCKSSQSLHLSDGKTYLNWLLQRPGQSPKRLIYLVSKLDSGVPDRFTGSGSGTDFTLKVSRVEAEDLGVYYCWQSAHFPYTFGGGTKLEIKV
notes: also called 带有工程化半胱氨酸的CD24嵌合抗体
  EC50: 0.153 nM
